Assay results published in patent US20250277031A1 (BEIJING HANMI PHARMACEUTICAL, published 2025).

Legend:
Assay in all cases: ELISA, plate coated with 1 µg/mL recombinant human protein, anti-human IgG-HRP, OD450; antibody concentration not given
[1] = molecular target: T1, recombinant human PD1 (ACROBiosystems) (human, UniProt Q15116 25-167)
T1 construct: counted here as a CD28 family member
Protocol: (§1) Binding specificity of the chimeric anti-human CD47 mAbs was determined by ELISA. A 96-well high-adsorption ELISA plate was coated with 1 μg/mL of the recombinant human PD1, CD28, CTLA4, ICOS, BTLA, CD47, PD-L2, CD80, CD86, B7-H2, CD47, SIRPα and SIRPγ (all from ACROBiosystems), at 100 μL per well using carbonate buffer solution, pH=9.6 at 4° C. overnight. The plate was washed 5 times with PBST, and then blocked using PBST with 1% BSA, 300 μL/well, and incubated at 25° C. for 1 hour, and then washed 5 times with PBST. The chimeric anti-human CD47 mAb samples serially diluted in PBST with 1% BSA and the control CC-90002 and the isotype control were added, 100 μL/well, incubated at 25° C. for 1 hour, and then washed 5 times with PBST. The horseradish peroxidase-labeled anti-human IgG antibody (Chemicon, catalog number AP309P) diluted 1:10000 in PBST with 1% BSA was then added, 100 μL per well, and incubated at 25° C. for 1 hour. The plate was washed 5 times with PBST. The colorimetric substrate TMB was added, 100 μL/well, and developed at room temperature for 10 minutes. 1M H₂SO₄ was added, 100 μL/well, to stop the development. The absorbance at 450 nm was read on a microplate reader.

[2] = molecular target: T2, recombinant human CD28 (ACROBiosystems) (human, UniProt P10747 19-152)
T2 construct: counted here as a CD28 family member
Protocol: as §1

[3] = molecular target: T3, recombinant human BTLA (ACROBiosystems) (human, UniProt Q7Z6A9 31-151, limits assumed)
T3 construct: counted here as a CD28 family member
Protocol: as §1

[4] = molecular target: T4, recombinant human PD-L2 (ACROBiosystems) (human, UniProt Q9BQ51 20-219, limits assumed)
T4 construct: counted here as a B7 family member
T4 sequence (looked up): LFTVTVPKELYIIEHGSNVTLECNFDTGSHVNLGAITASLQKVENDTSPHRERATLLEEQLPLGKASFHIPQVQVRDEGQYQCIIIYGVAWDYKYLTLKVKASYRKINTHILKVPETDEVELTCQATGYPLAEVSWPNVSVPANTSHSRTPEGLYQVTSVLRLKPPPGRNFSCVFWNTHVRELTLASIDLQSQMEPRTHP
Protocol: as §1

[5] = molecular target: T5, recombinant human CD80 (ACROBiosystems) (human, UniProt P33681 35-242)
T5 construct: counted here as a B7 family member
T5 sequence (looked up): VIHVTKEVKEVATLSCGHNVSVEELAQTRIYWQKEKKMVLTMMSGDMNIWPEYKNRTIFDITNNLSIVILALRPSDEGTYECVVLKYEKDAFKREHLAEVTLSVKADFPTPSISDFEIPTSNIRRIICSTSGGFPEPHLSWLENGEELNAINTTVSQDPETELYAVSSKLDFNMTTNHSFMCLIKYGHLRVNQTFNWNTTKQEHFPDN
Protocol: as §1

[6] = molecular target: T6, recombinant human CD86 (ACROBiosystems) (human, UniProt P42081 26-247, limits assumed)
T6 construct: counted here as a B7 family member
T6 sequence (looked up): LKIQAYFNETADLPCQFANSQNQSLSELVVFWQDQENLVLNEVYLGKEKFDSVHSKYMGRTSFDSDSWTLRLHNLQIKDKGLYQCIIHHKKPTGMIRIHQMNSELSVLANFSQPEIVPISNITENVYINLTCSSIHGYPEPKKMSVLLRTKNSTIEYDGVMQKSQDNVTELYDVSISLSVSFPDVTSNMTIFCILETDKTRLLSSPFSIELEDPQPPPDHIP
Protocol: as §1

[7] = molecular target: T7, recombinant human B7-H2 (ACROBiosystems) (human, UniProt O75144 19-258, limits assumed)
T7 construct: counted here as a B7 family member
T7 sequence (looked up): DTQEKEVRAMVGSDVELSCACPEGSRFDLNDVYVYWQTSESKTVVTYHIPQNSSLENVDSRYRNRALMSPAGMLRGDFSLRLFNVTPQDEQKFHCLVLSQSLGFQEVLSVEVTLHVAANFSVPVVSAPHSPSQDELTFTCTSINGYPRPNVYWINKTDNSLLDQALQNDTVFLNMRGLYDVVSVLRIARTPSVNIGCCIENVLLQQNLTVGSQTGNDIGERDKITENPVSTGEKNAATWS
Protocol: as §1

[8] = molecular target: T8, recombinant human SIRPα (ACROBiosystems) (human, UniProt P78324 31-370)
T8 construct: unlabelled protein coated in the specificity ELISA
Protocol: as §1

[9] = molecular target: recombinant human SIRPγ (ACROBiosystems) (human, UniProt Q9P1W8 29-360, limits assumed)
Protocol: as §1

Measured: binding result

T1 sequence (Q15116 25-167 limits assumed): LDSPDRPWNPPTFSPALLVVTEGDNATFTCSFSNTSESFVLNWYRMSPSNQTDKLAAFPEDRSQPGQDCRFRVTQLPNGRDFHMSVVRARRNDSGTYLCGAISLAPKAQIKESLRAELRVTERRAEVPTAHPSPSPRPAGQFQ
T3 sequence (Q7Z6A9 31-151 limits assumed): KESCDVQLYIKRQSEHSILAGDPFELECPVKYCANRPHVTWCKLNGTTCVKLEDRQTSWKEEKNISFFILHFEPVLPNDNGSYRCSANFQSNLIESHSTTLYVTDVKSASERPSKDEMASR
T8 sequence (P78324 31-370 limits assumed): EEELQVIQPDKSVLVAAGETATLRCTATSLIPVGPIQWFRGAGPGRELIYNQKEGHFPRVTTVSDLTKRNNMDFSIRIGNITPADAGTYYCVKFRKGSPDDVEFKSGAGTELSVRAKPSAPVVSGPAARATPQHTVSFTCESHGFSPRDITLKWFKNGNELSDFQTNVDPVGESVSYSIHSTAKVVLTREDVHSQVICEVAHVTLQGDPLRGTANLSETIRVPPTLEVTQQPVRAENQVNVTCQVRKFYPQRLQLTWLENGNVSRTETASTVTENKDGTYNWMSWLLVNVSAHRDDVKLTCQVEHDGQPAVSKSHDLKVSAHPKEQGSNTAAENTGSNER
recombinant human SIRPγ (ACROBiosystems), sequence (Q9P1W8 29-360 limits assumed): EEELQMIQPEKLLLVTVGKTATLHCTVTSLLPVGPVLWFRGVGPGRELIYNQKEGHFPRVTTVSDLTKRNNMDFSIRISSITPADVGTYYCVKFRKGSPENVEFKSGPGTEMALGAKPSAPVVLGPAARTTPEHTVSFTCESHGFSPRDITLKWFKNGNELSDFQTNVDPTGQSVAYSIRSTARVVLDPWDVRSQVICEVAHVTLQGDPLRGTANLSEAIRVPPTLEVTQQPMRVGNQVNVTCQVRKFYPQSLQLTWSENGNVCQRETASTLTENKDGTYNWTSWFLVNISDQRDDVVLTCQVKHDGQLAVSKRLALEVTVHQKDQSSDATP

B1: chimeric anti-human CD47 monoclonal antibody mAb-18-5 (antibody, human IgG1, kappa)
heavy: not shown
light: DIVMTQSQKFMSTSVGDRVSITCKASQNVRTSIAWYQQKSGQSPKTLIYLASNRHTGVPDRFTGSGSGTDFTLTISNVQSEDLADYFCLQHWNYPFTFGSGTKLEIKRTVAAPSVFIFPPSDEQLKSGTASVVCLLNNFYPREAKVQWKVDNALQSGNSQESVTEQDSKDSTYSLSSTLTLSKADYEKHKVYACEVTHQGLSSPVTKSFNRGEC
no binding: all assays above
